# Results reported in publication PMC11406360, “The enzymatic oxygen sensor cysteamine dioxygenase binds its protein substrates through their N-termini” (The Journal of Biological Chemistry, 2024).
# *1 amine or outer side, *2 acyl side, *3 side chain or, on linkers, in order; H or OH if unused. Where a SMILES comes first, the peptide text is derived from it. Where no end group is shown, it is not given here. [ ]: non-standard residue; d: D form. Cys(O2H) = cysteine sulfinic acid (N-terminal cysteine sulfinylated), O=C([C@H](CS(=O)O[*:3])N[*:1])[*:2]
# T1: ADO (2-aminoethanethiol dioxygenase), iron-bound wild type (Homo sapiens, UniProt Q96SZ5)
# T1 construct: Full-length human ADO (UniProt ID: Q96SZ5) was cloned; made in house; host or cells: Rosetta2(DE3) Escherichia coli
# T1 sequence (Q96SZ5 1-270): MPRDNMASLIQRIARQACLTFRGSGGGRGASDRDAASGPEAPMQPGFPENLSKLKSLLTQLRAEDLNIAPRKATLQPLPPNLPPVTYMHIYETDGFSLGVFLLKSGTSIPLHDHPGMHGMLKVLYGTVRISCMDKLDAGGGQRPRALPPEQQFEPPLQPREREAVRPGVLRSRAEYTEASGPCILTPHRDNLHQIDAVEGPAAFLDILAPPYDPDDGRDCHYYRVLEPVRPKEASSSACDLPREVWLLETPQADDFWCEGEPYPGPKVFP
# T2: 2-aminoethanethiol (cysteamine) dioxygenase (ADO), biotinylated, for SPR (human, UniProt Q96SZ5 1-270, biotin (N terminally biotinylated; 0.2 mM biotin added at induction))
# T2 chain: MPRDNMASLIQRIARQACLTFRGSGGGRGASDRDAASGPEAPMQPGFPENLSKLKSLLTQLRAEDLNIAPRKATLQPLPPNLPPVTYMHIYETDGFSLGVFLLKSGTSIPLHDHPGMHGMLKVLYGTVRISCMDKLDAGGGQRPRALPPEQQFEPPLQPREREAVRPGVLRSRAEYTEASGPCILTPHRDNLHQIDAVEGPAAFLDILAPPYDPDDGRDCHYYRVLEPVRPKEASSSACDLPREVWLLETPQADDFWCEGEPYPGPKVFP
# T3: 2-aminoethanethiol (cysteamine) dioxygenase (ADO), biotinylated, for SPR (human, UniProt Q96SZ5 1-270, biotin (N terminally biotinylated; 0.2 mM biotin added at induction))
# T3 construct: 2-aminoethanethiol (cysteamine) dioxygenase (ADO), human, UniProt Q96SZ5, full length; In the chelation experiments the metal was removed and iron put back on the chip (see assays a2, a3); Used also as the ADO of the functional rows, although the enzyme assays used the pET28a-ADO construct (N-terminal His tag); also called WT ADO; native ADO; source: E. coli Rosetta2(DE3), pQE80L-Navi construct, …
# T3 sequence (looked up): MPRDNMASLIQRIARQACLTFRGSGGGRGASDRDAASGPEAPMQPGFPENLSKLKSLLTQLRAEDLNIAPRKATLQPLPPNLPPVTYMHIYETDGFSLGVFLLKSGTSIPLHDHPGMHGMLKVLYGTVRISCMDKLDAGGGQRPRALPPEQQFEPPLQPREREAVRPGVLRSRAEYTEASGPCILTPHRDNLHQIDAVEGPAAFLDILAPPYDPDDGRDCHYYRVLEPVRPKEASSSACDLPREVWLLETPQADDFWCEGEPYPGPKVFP
# Target: T1, ADO (2-aminoethanethiol dioxygenase), iron-bound wild type
# Assay: SPR binding of peptide/protein substrates to immobilised ADO
# Conditions: SPR steady state, 1:1 binding model, biotinylated ADO on Biotin CAP chip, 4 °C, 20 mM Hepes pH 7.5, 500 mM NaCl, 10 mM DTT, 0.1% tween-20; geometric mean (± SD) of minimum three independent measurements
# Description: ADO catalyzes the O2-dependent sulfinylation of Nt-cys residues, which reportedly bind to the iron cofactor in a monodentate arrangement through ligation of the thiol group ([14], [15]). To test the importance of Nt-cys modifications and substitutions on ADO association, a SPR assay was established. […] Data collected under steady state conditions is presented in the main text and kinetic constants are provided in the Tables S1–S8 (alongside steady state measurements). All measurements were collected at 4 °C to minimize enzyme activity.
# SPR measurements were made using a Biacore T200 (Cytiva) instrument and data were analyzed using the Biacore Insight Evaluation Software (Cytiva; https://www.cytivalifesciences.com/en/us/shop/protein-analysis/spr-label-free-analysis/spr-software-and-extensions/biacore-insight-evaluation-software-p-23528). Biotinylated-ADO was immobilized on a Biotin CAP chip (Cytiva) with a target density of ∼2500 to 3000 RU and peptide/protein substrates were injected over the chip. […] A buffer comprising 20 mM Hepes pH 7.5, 500 mM NaCl, 10 mM DTT, and 0.1% (v/v) tween-20 was used as the running buffer at a flow rate of 50 μl/min.
# For metal-chelation experiments, a mixture of 10 mM 1, 10-phenanthroline and 100 mM EDTA (pH 8) was injected onto the chip using 10 × 60 s injections at a 100 μl/min flow rate. […] The instrument and chip were primed into buffer excluding reducing agents before conducting metal chelation and iron reconstitution.
row,Molecule,Equilibrium dissociation constant KD
1,K3W: RGS5 third position mutant peptide (CWGLAALPHSCLER),the most tolerated
2,Ac-RGS5: Nt-acetylated RGS5 peptide (Ac-CKGLAALPHSCLER; cysteine pairing not given here),No binding
3,RGS5-Ox: Nt-sulfinylated RGS5 peptide acquired through preincubation with ADO ([Cys(O2H)]KGLAALPHSCLER),No binding
4,K3L: RGS5 third position mutant peptide (CLGLAALPHSCLER),the most tolerated
5,RGS5-C2A: RGS5 peptide with Nt-cys to alanine (AKGLAALPHSCLER),No binding
6,K3Y: RGS5 third position mutant peptide (CYGLAALPHSCLER),the most tolerated
7,K3R: RGS5 third position mutant peptide (CRGLAALPHSCLER),the most tolerated
8,"RGS5^FL-C2A: full-length RGS5 C2A mutant (protein, left off: His tag, N-terminal, cleaved | SUMO, N-terminal, cleaved, full-length RGS5 C2A mutant) MAKGLAALPHSCLERAKEIKIKLGILLQKPDSVGDLVIPYNEKPEKPAKTQKTSLDEALQWRDSLDKLLQNNYGLASFKSFLKSEFSEENLEFWIACEDYKKIKSPAKMAEKAKQIYEEFIQTEAPKEVNIDHFTKDITMKNLVEPSLSSFDMAQKRIHALMEKDSLPRFVRSEFYQELIK",prevented binding

# Same assay, conditions: SPR steady state, 1:1 binding model, biotinylated ADO on Biotin CAP chip, 4 °C, 20 mM Hepes pH 7.5, 500 mM NaCl, 10 mM DTT, 0.1% tween-20; geometric mean (± SD) of minimum three independent measurements; read-out: Equilibrium dissociation constant KD
row,Molecule,Kd [µM]
1,CC(C)C[C@H](NC(=O)CNC(=O)[C@H](CCCCN)NC(=O)[C@@H](N)CS)C(=O)N[C@@H](C)C(=O)N[C@@H](C)C(=O)N[C@@H](CC(C)C)C(=O)N1CCC[C@H]1C(=O)N[C@@H](Cc1c[nH]cn1)C(=O)N[C@@H](CO)C(=O)N[C@@H](CS)C(=O)N[C@@H](CC(C)C)C(=O)N[C@@H](C)C(=O)N[C@@H](CCCNC(=N)N)C(N)=O [RGS5-E14A] (H-CKGLAALPHSCLAR-NH2),0.26 ± 0.042
2,SKGLAALPHSCLER-NH2 [RGS5-C2S],42 ± 5.5
3,NC(=O)[C@@H]1CCCN1C(=O)[C@H](Cc1ccccc1)NC(=O)[C@@H](N)CS [IL32 tripeptide] (H-Cys-Phe-Pro-NH2; C-terminus assumed),0.13 ± 0.0037
4,CC(C)C[C@H](NC(=O)CNC(=O)[C@H](CCCCN)NC(=O)[C@@H](N)CS)C(=O)N[C@@H](C)C(=O)N[C@@H](C)C(=O)N[C@@H](CC(C)C)C(=O)N[C@@H](C)C(=O)N[C@@H](Cc1c[nH]cn1)C(=O)N[C@@H](CO)C(=O)N[C@@H](CS)C(=O)N[C@@H](CC(C)C)C(=O)N[C@@H](CCC(=O)O)C(=O)N[C@@H](CCCNC(=N)N)C(N)=O [RGS5-P9A] (H-CKGLAALAHSCLER-NH2),0.25 ± 0.023
5,CC(C)C[C@H](NC(=O)CNC(=O)[C@H](CCCCN)NC(=O)[C@@H](N)CS)C(=O)N[C@@H](C)C(=O)N[C@@H](C)C(=O)N[C@@H](CC(C)C)C(=O)N1CCC[C@H]1C(=O)N[C@@H](Cc1c[nH]cn1)C(=O)N[C@@H](CO)C(=O)N[C@@H](CS)C(=O)N[C@@H](C)C(=O)N[C@@H](CCC(=O)O)C(=O)N[C@@H](CCCNC(=N)N)C(N)=O [RGS5-L13A] (H-CKGLAALPHSCAER-NH2),0.26 ± 0.032

# Same assay, conditions: SPR, 4 °C; relative to native IL32 peptide
row,Molecule,Fold improvement in binding affinity (stronger) relative to native 14-residue peptide
1,H-CFAKVLSDDMKKLK-NH2 (C-terminus assumed) [IL32-P4A],approximately 2 fold
2,NC(=O)[C@@H]1CCCN1C(=O)[C@H](Cc1ccccc1)NC(=O)[C@@H](N)CS [IL32 tripeptide] (H-Cys-Phe-Pro-NH2; C-terminus assumed),~2 fold
3,H-CFPAVLSDDMKKLK-NH2 (C-terminus assumed) [IL32-K5A],approximately 2 fold

# Same assay, conditions: SPR, 4 °C; relative to native RGS5 or IL32 peptide
row,Molecule,Fold decrease in binding affinity (weaker/higher KD) relative to native 14-residue peptide [fold]
1,H-CAPKVLSDDMKKLK-NH2 (C-terminus assumed) [IL32-F3A],~8

# Target: T2, 2-aminoethanethiol (cysteamine) …
# Assay: SPR
# Conditions: not given
row,Molecule,Kd [µM]
1,CKGLAALPHSALER [RGS5-C12A],0.3
2,CKGLAALPHSCLEA [RGS5-R15A],0.21
3,CKGLAALAHSCLER [RGS5-P9A],0.25
4,CKGLAALPHACLER [RGS5-S11A],0.35
5,CKGAAALPHSCLER [RGS5-L5A],0.22
6,CKGLAAAPHSCLER [RGS5-L8A],0.31

# Target: T3, 2-aminoethanethiol (cysteamine) …
# Assay: SPR; Biacore T200; biotinylated ADO immobilized on a Biotin CAP chip (∼2500 to 3000 RU), peptide/protein substrates injected; 4 °C; 20 mM Hepes pH 7.5, 500 mM NaCl, 10 mM DTT, 0.1% tween-20; 50 μl/min; multicycle, equilibrium steady state affinity 1:1 binding model
# Conditions: both partners purified
Molecule,Kd [µM],binding result
"CAGLAALPHSCLER (peptide, UniProt O15539 2-15, looked up, RGS5 residues 2-15 (initiating methionine denoted as 1), K3A; source: synthetic peptide (SPPS, HPLC purified)) [RGS5-K3A peptide]",0.54 ± 0.088,–
"CDGLAALPHSCLER (peptide, UniProt O15539 2-15, looked up, RGS5 residues 2-15 (initiating methionine denoted as 1), K3D; source: synthetic peptide) [RGS5-K3D peptide]",39 ± 1.2,–
"CLGLAALPHSCLER (peptide, UniProt O15539 2-15, looked up, RGS5 residues 2-15 (initiating methionine denoted as 1), K3L; source: synthetic peptide) [RGS5-K3L peptide]",–,binds
"CRGLAALPHSCLER (peptide, UniProt O15539 2-15, looked up, RGS5 residues 2-15 (initiating methionine denoted as 1), K3R; source: synthetic peptide) [RGS5-K3R peptide]",–,binds
"CWGLAALPHSCLER (peptide, UniProt O15539 2-15, looked up, RGS5 residues 2-15 (initiating methionine denoted as 1), K3W; source: synthetic peptide) [RGS5-K3W peptide]",–,binds
"CYGLAALPHSCLER (peptide, UniProt O15539 2-15, looked up, RGS5 residues 2-15 (initiating methionine denoted as 1), K3Y; source: synthetic peptide) [RGS5-K3Y peptide]",–,binds
"CKALAALPHSCLER (peptide, UniProt O15539 2-15, looked up, RGS5 residues 2-15 (initiating methionine denoted as 1), G4A; source: synthetic peptide (SPPS, HPLC purified)) [RGS5-G4A peptide]",0.71 ± 0.015,–
"CKKLAALPHSCLER (peptide, UniProt O15539 2-15, looked up, RGS5 residues 2-15 (initiating methionine denoted as 1), G4K; source: synthetic peptide) [RGS5-G4K peptide]",12 ± 1.5,–
"CKPLAALPHSCLER (peptide, UniProt O15539 2-15, looked up, source: synthetic peptide) [RGS5-G4P peptide]",–,binds
"CAPKVLSDDMKKLK (peptide, UniProt P24001 2-15, looked up, IL32 residues 2-15 (initiating methionine denoted as 1), F3A; source: synthetic peptide (SPPS, HPLC purified)) [IL32-F3A peptide]",2.2 ± 0.072,–
"CFPKVASDDMKKLK (peptide, UniProt P24001 2-15, looked up, IL32 residues 2-15 (initiating methionine denoted as 1), L7A; source: synthetic peptide (SPPS, HPLC purified)) [IL32-L7A peptide]",0.57 ± 0.012,–
"CFAKVLSDDMKKLK (peptide, UniProt P24001 2-15, looked up, IL32 residues 2-15 (initiating methionine denoted as 1), P4A; source: synthetic peptide (SPPS, HPLC purified)) [IL32-P4A peptide]",0.15 ± 0.0012,–
"CFPAVLSDDMKKLK (peptide, UniProt P24001 2-15, looked up, IL32 residues 2-15 (initiating methionine denoted as 1), K5A; source: synthetic peptide (SPPS, HPLC purified)) [IL32-K5A peptide]",0.14 ± 0.002,–
"SKGLAALPHSCLER (peptide, UniProt O15539 2-15, looked up, RGS5 residues 2-15 (initiating methionine denoted as 1), Nt-cys to serine; source: synthetic peptide (SPPS, HPLC purified)) [RGS5-C2S peptide]",~40,–
full-length RGS5 (RGS5^FL) (natural protein) CKGLAALPHSCLERAKEIKIKLGILLQKPDSVGDLVIPYNEKPEKPAKTQKTSLDEALQWRDSLDKLLQNNYGLASFKSFLKSEFSEENLEFWIACEDYKKIKSPAKMAEKAKQIYEEFIQTEAPKEVNIDHFTKDITMKNLVEPSLSSFDMAQKRIHALMEKDSLPRFVRSEFYQELIK,3 ± 0.058,–
RGS5^FL-C2S (natural protein) SKGLAALPHSCLERAKEIKIKLGILLQKPDSVGDLVIPYNEKPEKPAKTQKTSLDEALQWRDSLDKLLQNNYGLASFKSFLKSEFSEENLEFWIACEDYKKIKSPAKMAEKAKQIYEEFIQTEAPKEVNIDHFTKDITMKNLVEPSLSSFDMAQKRIHALMEKDSLPRFVRSEFYQELIK,63 ± 0.61,–
"SFPKVLSDDMKKLK (peptide, UniProt P24001 2-15, looked up, IL32 residues 2-15 (initiating methionine denoted as 1), Nt-cys to serine; source: synthetic peptide (SPPS, HPLC purified)) [IL32-C2S peptide]",~40,–
